In patent US20240409617A1:
Substitutions are numbered along the chain they refer to.

B1: S1-R3-T1-C4 (Ab_8) scFv-Fc (scFv, V domains shown)
VH: QVQLVQSGAEVKKPGSSVKVSCKASGGTFSSYAISWLRQAPGQGLEWMGWINPNSGGTNYAQKFQGRVTMTRDTSISTAYMELSRLRSDDTAVYYCARGSGGYYLGWGQGTLVTVSS
VL: QPGLTQPPSVSKGLRQTATLTCTGNSNNVGNQGAAWLQQHQGHPPKLLSYMNNNRPPGISERFSASRSGNTASLTITGLQPEDEADYYCSAWDSSLSRWVFGGGTKLSVL
B2: S1-RBD-R3-T1-F5 (Ab2-7) scFv-Fc (scFv, V domains shown)
VH: QVTLKESGPTRVKPTQTLTLTCTFSGFSLSTTGVGVGWIRQPPGKALEWLALIYWNDDKRYSPSLKSRLTITKDTSKNQVVLTMTNMDPVDTATYYCARISGSGYFYPFDIWGQGTTVTVSS
VL: NFMLTQPHSVSESPGKTVTISCTRSSGSIASNYVQWYQQRPGSSPTTVIYEDNQRPSGVPDRFSGSIDSSSNSASLTISGLKAEDEADYYCQSYDSSSLWVFGGGTKLTVL
B3: Ab_13 scFv-Fc (scFv, V domains shown)
VH: B2 VH with T10K, R11L, T32S, N56D, T72A, N78Y, T117M, S122A
VL: B2 VL with S44A, A83T, S98N
B4: Ab_14 scFv-Fc (scFv, V domains shown)
VH: QVQLQQSGPGLVKPSQTLSLTCAISGDSVSSNSAAWNWIRQSPARGLEWLGRTYYRSRWYNDYAISMKSRITINPDTSKNQFSLQLESVTPEDTAVYYCAREIRGFDYWGQGTLVTVSS
VL: QSVLTQPPSASGSPGQSVTISCTGTSSDVGAYNFVSWYQHHPGKAPKLIIYDFNKRPSGVPDRFSGSKSGNTASLTVSGLQADDEADYYCSSYAGSNNFDVVFGGGTKLTVL
B5: Ab_16 scFv-Fc (scFv, V domains shown)
VH: QVQLVQSGGGVVQPGRSLRLSCAASGFTFSNYGMHWVRQAPGKGLEWVALIWERGSKKDYADSVKGRFTVSRDNSKNTLYLQMNSLRPEDTAVYFCAREGISMTGAEYFQHWGQGTLVTVSS
VL: QSVLTQPPSVSGSPGQRVTMSCTGSSSNIGAGYDVHWYQQVPGAAPRLLIYGTNNRPSGVPDRFSGSKSGTSASLTITGLQAEDEADYYCQSYDNSLTDPYVFGTGTKVTVL
B6: Ab_17 scFv-Fc (scFv, V domains shown)
VH: QVQLVQSGGGVVQPGRSLRLSCAASGFTFDDYAMHWVRQVPGKGLEWVSGIDWNSGVIGYADSVKGRFTISRDNVKNSLYLQMNSLRTEDSALYYCAKDIGPGGSGSYYAFDIWGQGTTVTVSS
VL: QSALTQPASVSGSPGQSITISCTGTSSDVGGSKYVSWYQQHPGKAPKVMIYDVTKRPSGVPDRFSGSKSGNTASLTISGLQAEDEADYYCAAWDDSLNGVVFGGGTKLTVL
B7: Ab_18 scFv-Fc (scFv, V domains shown)
VH: EVQLVQSGGGVVQPGRSLRVSCAASGFSFSRYGMHWVRQAPGKGLEWVAFIRHDGSKKYYADSVEGRFTISRDNSRNTVSLEMNSLRGEDTAVYYCAKDGRLEAALDDWGQGTLVTVSS
VL: NFMLTQPHSMSGSAGKTVTVSCIRSSGSIANNFVQWYQQRPGSAPTTVIYEDNQRPSGVPDRFSGSIDSSSNSASLTISGLKTEDEADYYCQSYDSSNLVFGGGTRLTVL
B8: Ab_19 scFv-Fc (scFv, V domains shown)
VH: EVQLVESGAEVKKPGESLKISCKGSGYSFTSYWIGWVRQMPGKGLEWMGIIYPGDSDTRYSPSFQGQVTISADKSISTAYLQWSSLKASDTAMYYCARRGDLDAFDIWGQGTMVTVSS
VL: QPGLTQPPAASGTPGQRVTVSCSGASANIGSNAVSWFKQFPETAPRLLISGNTHRPSGVPDRVSGSKSGTSASLTISGLQSDDEADYYCAAWDDSLNGYVFGSGTKVTVL
B9: Ab_20 scFv-Fc (scFv, V domains shown)
VH: QVQLVQSGGGSVKPGGSLRLSCAASGYRLSDYYMHWVRQAPGKGLEWVANIKQDGSEKYYVDSVKGRFTISRDNAKNSLYLQMNSLRAEDTAVYYCARVRGWSRGYFDYWGQGTLVTVSS
VL: B2 VL with R24G, S44A, T77L, A83T, S98N, L99H
B10: Ab_21 scFv-Fc (scFv, V domains shown)
VH: QVQLVQSGGGLVQPGGSLRLSCATSGFTFDDYAMHWVRQAPGKGLEWVSGISWNSGSIGYVDSVKGRFTISRDNRNNKVYLQMNNLRAEDTAVYYCARDWWGSIDHWGLGTLVTVSS
VL: QSALTQPRSVSGSPGQSVTISCTGTSSDVGGYDYVSWYQQHPGKAPKLIIYDVSKRPSGVPDRFSGSKSGNTASLTVSGLQAEDEADYYCSSYTSSSPVVFGGGTKLTVL
B11: Ab_23 scFv-Fc (scFv, V domains shown)
VH: EVQLVQSGAEVKKPGSSVKVSCRSSGGTFSTYGITWVRQAPGQGLEWMGRIIPSLGIPNYAQKFQGRVTITADTSVSTAWMELSSLESDDTAIYYCARENIDLATNDFWGQGTLVTVSS
VL: QSALTQPPSASGSPGQSVTISCTGTSRDIGAYGYVSWYQQVPGKAPKLIIYEVRNRPSGVSSRFSGSKSGNTASLTISGLQAEDEADYYCSSYTSSSTLDVVFGGGTKLTVL
B12: Ab_25 scFv-Fc (scFv, V domains shown)
VH: QVQLVQSGGGLVQPGGSLRLSCAASGFTFSSYWMSWVRQAPGKGLEWVANIKQDGSEKYYVDSVKGRFTISRDNAKNSLYLQMNSLRAEDTAVYYCARGFYYYGAFDIWGQGTTVTVSS
VL: B2 VL with R24G, S44A, D68G, A83T, S98N, L99H
B13: Ab_26 scFv-Fc (scFv, V domains shown)
VH: QVQLVQSGGGLVQPGRSLRLSCAASGFTFDDYAMHWVRQVPGKGLEWVSGIDWNSGVIGYADSVKGRFTISRDNAKNSLYLQMNSLRAEDTALYYCAKDAYSYGFLGAFDIWGQGTMVTVSS
VL: LPVLTQPPSVSVAPGQTASITCGGDNIRTKGVHWYQQKPGQAPLLVIYYASDRPSGIPERFSGSSSGNTATLTISRVEAGDEADYYCQVWDSSSDLVVFGGGTTLTVL
B14: Ab_27 scFv-Fc (scFv, V domains shown)
VH: QVQLVQSGTEVKKPGASVKVSCKASGYSFTGSHLHWVRQAPGQGLEWMGWINPDSGVINYAQKFQGRVTLTRDTSISTAYMELSGLRSDDTAVYYCARDKAIGYVWALDYWGQGTLVTVSS
VL: QSALTQPPSVSGSPGQSVTISCTGTSSDVGTYNRVSWYQQPPGKAPKLMIYEVSNRPSGVSNRFSGSKSGNTASLTISGLQAEDEADYYCSSYTRTFTYVFGTGTKVTVL
B15: Ab_28 scFv-Fc (scFv, V domains shown)
VH: QVTLKESGPGLVNPSETLSLTCTVSGASISNSFWSWIRQSPGKGLEWIGYTSYSGNSIYNPSLKSRLTMSIDTSKNQLSLNLRSLTAADTAVYYCARREWIKGHFDYWGQGTLVTVSS
VL: B2 VL with R24G, S26G, S44A, A83T, S98N, L99P, W100V
B16: S1-RBD-R3-T1-C7 Ab (Ab_29) scFv-Fc (scFv, V domains shown)
VH: QVQLQQSGPGLVKPSQTLSLTCAISGDSVSSYSDAWNWIRQSPSRGLEWLGRTYYRSKWYNDYAVSVKSRITINPDTSKNQFSLQLSSVTPEDTAVYYCAREIVATTPFRNYYYGMDVWGQGTTVTVSS
VL: B2 VL with K16N, S25T, Y50F, E51Q, N53K, Q54L, A83T
B17: RBD-R3-E1-A5 Ab (Ab_30) scFv-Fc (scFv, V domains shown)
VH: QVQLVQSGGGVVQPGKSLRLSCTASGFTFSDFPIHWVRQAPGKGLEWVGVISYDGNIKYYGDSVKGRFTISRDNAKNSLYLQMNSLRVEDTAVYYCARGGSSFDIWGQGTTVTVSS
VL: SYELTQPPSVSEAPRQRVTISCSGSTSNIGNNAVSWYQHLPGKAPKLLIYYNERLPSGVSDRFSGSKSGTSASLAISGLRSEDEADYYCAAWDDSLSGHVVFGGGTKLTVL
B18: S1-RBD-R3-T1-B12 Ab (Ab_31) scFv-Fc (scFv, V domains shown)
VH: QVQLVQSGAEVKKPGSSVKVSCKASGGTFSSYTISWVRQAPGQGLEWMGGIIPILGTPNYAQKFQDRVAITADKSTSTAYMELSSLRSEDTAVYYCAVGSGWYSGFDYWGQGTLVTVSS
VL: NFMLTQPHSVSESPGKTVTISCTGSSGSIASNYVQWYQQRPGSAPTTVIYEDSQRPSGVPDRFSGSIDSSSNSASLTISGLKTEDEADYYCQSFHNSNPVIFGGGTKLTVL
B19: RBD-R3-E1-B3 Ab (Ab_32) scFv-Fc (scFv, V domains shown)
VH: QVQLVQSGAEVKKPGESLKISCKGSGYSFTSYWIGWVRQMPGKGLEWMGIIYPGDSDTRYSPSFQGQVTISADKSISTAYLQWSSLKASDTAMYYCARGWQWHDYWGQGTLVTVSS
VL: QTVVTQEPAVSVALGQTVRITCQGDSLRSYYASWYQQKPGQAPVLVVYDKDKRPSGIPDRFSGSTSGNTASLTITGAQAEDEADYYCNSRDRSDNHVVFGGGTKLTVL
B20: Ab2-7 IgG (antibody, V domains shown)
VH: B2 VH
VL: B2 VL

The binders below were run against D614G Spike (SARS-CoV2).
Binder B1 has a Kd of 7.3 pM and a Response of 0.187. With B2 the Kd was 9.93 pM and the Response was 0.116. Work on B3 yielded a Kd of 8.1 pM and a Response of 0.107. B4 showed a Kd of 8.12 pM and a Response of 0.402. In the case of B5, the Kd is reported as 8.35 pM and the Response is reported as 0.434. With B6 the Kd was 6.8 pM and the Response was 0.357. B7 was tested, and the Kd was 6.33 pM and the Response was 0.291. B8 showed a Kd of 10.9 pM and a Response of 0.237. Binder B9 has a Kd of 8.64 pM and a Response of 0.19. Work on B10 yielded a Kd of 8 pM and a Response of 0.228. B11 showed a Kd of 8.82 pM and a Response of 0.162. In the case of B12, the Kd is reported as 8.56 pM and the Response is reported as 0.0425. In the case of B13, the Kd is reported as 9.97 pM and the Response is reported as 0.304. B14 gave a Kd of 7.53 pM and a Response of 0.276. In the case of B15, the Kd is reported as 9.41 pM and the Response is reported as 0.199. B16 gave a Kd of 1.04 pM and a Response of 0.202. For B17, the Kd was 7.43 pM and the Response was 0.179. B18 showed a Kd of 9.03 pM and a Response of 0.168. Binder B19 has a Kd of 7.26 pM and a Response of 0.204.

Each binder was assayed against SARS-CoV-2 spike trimer, soluble (SARS-CoV-2).
For B20, the Kd was less than 1 pM, the koff was less than 1e-07 s⁻¹ and the kon was 4.31e+07 M⁻¹ s⁻¹.
